The experiment concerns the target human SIRPα V1 expressed on cells (NOR mouse macrophages or CHO cells) (human) (UniProt P78324). Kind of experiment: cell-based binding assay (NOR mouse macrophages). Further details: unit not given beside the values. The note with it: Fc fusion.

human CD47-Fc fusion protein, sequence (Q08722 19-141): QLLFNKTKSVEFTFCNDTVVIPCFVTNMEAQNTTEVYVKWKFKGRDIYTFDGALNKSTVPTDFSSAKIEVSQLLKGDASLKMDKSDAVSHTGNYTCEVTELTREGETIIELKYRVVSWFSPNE
human SIRPα V1 expressed on cells (NOR mouse macrophages or CHO cells) (human), sequence (P78324 31-504): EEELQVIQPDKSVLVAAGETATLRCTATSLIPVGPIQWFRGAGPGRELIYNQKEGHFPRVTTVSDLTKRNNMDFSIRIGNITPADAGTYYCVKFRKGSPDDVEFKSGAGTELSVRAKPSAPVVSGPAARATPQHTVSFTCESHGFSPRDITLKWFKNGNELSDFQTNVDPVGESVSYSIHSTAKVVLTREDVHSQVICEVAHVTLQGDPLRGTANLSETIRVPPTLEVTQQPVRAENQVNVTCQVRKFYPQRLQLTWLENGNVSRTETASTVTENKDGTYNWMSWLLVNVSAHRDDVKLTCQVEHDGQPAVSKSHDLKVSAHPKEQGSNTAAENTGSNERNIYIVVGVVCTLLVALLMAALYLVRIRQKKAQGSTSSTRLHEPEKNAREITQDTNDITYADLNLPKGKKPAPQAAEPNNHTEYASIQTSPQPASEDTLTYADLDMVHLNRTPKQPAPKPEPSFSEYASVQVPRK

In the case of “human CD47-Fc fusion protein (from UniProt Q08722 19-141)”, the Kd is 8.7 ?.

Source of the values: patent US20140242095A1.
